Patent US20150065381A1
Values joined by “and” are separate entries in the source; they are usually repeats but may differ in a detail not shown here. Identical values can stand only once.

Tests used:
[1] = target: HIV-1 JRFL envelope (HIV-1); assay: capture ELISA, plate 2, mAb 7.5 ug/ml
[2] = target: HIV-1 envelope clone G-011.c02 (multiclade gp160 clone panel) (HIV-1); assay: capture ELISA, plate 2, mAb 7.5 ug/ml
[3] = target: HIV-1 envelope of gp160 clone B-Acute-010.c08 (HIV-1); assay: capture ELISA, plate 2, mAb 7.5 ug/ml
[4] = target: HIV-1 envelope clone G-011.c05 (multiclade gp160 clone panel) (HIV-1); assay: capture ELISA, plate 2, mAb 7.5 ug/ml
[5] = target: HIV-1 envelope of gp160 clone B-Chronic-014.c02 (HIV-1); assay: capture ELISA, plate 2, mAb 7.5 ug/ml
[6] = target: HIV-1 envelope of gp160 clone B-Acute-009-c08 (HIV-1); assay: capture ELISA, plate 2, mAb 7.5 ug/ml
[7] = target: HIV-1 envelope of gp160 clone B-Acute-010.c09 (HIV-1); assay: capture ELISA, plate 2, mAb 7.5 ug/ml
[8] = target: HIV-1 16055 envelope (HIV-1); assay: capture ELISA, plate 2, mAb 7.5 ug/ml
[9] = target: HIV-1 envelope of gp160 clone AG-010.c11 (HIV-1); assay: capture ELISA, plate 2, mAb 7.5 ug/ml
[10] = target: HIV-1 envelope of gp160 clone AG-010.c14 (HIV-1); assay: capture ELISA, plate 2, mAb 7.5 ug/ml
[11] = target: HIV-1 envelope of gp160 clone B-Acute-008.c11 (HIV-1); assay: capture ELISA, plate 2, mAb 7.5 ug/ml
[12] = target: HIV-1 JRCSF envelope (HIV-1) (UniProt P20871); assay: capture ELISA, plate 2, mAb 7.5 ug/ml
[13] = target: HIV-1 envelope clone G-011.c02 (multiclade gp160 clone panel) (HIV-1); assay: capture ELISA, plate 1, mAb 2.5 ug/ml
[14] = target: HIV-1 envelope of gp160 clone B-Acute-010.c08 (HIV-1); assay: capture ELISA, plate 1, mAb 2.5 ug/ml
[15] = target: HIV-1 envelope of gp160 clone B-Chronic-014.c02 (HIV-1); assay: capture ELISA, plate 1, mAb 2.5 ug/ml
[16] = target: HIV-1 envelope of gp160 clone B-Acute-009-c08 (HIV-1); assay: capture ELISA, plate 1, mAb 2.5 ug/ml
[17] = target: HIV-1 16055 envelope (HIV-1); assay: capture ELISA, plate 1, mAb 2.5 ug/ml
[18] = target: HIV-1 envelope of gp160 clone AG-010.c14 (HIV-1); assay: capture ELISA, plate 1, mAb 2.5 ug/ml
[19] = target: HIV-1 JRCSF envelope (HIV-1) (UniProt P20871); assay: capture ELISA, plate 1, mAb 2.5 ug/ml
[20] = target: HIV-1 envelope clone G-011.c05 (multiclade gp160 clone panel) (HIV-1); assay: capture ELISA, plate 2, mAb 2.5 ug/ml
[21] = target: HIV-1 envelope of gp160 clone B-Chronic-014.c02 (HIV-1); assay: capture ELISA, plate 2, mAb 2.5 ug/ml
[22] = target: HIV-1 envelope of gp160 clone B-Acute-009-c08 (HIV-1); assay: capture ELISA, plate 2, mAb 2.5 ug/ml
[23] = target: HIV-1 16055 envelope (HIV-1); assay: capture ELISA, plate 2, mAb 2.5 ug/ml
[24] = target: HIV-1 envelope of gp160 clone AG-010.c11 (HIV-1); assay: capture ELISA, plate 2, mAb 2.5 ug/ml
[25] = target: HIV-1 envelope of gp160 clone AG-010.c14 (HIV-1); assay: capture ELISA, plate 2, mAb 2.5 ug/ml
[26] = target: HIV-1 envelope of gp160 clone B-Acute-008.c11 (HIV-1); assay: capture ELISA, plate 2, mAb 2.5 ug/ml
[27] = target: HIV-1 JRCSF envelope (HIV-1) (UniProt P20871); assay: capture ELISA, plate 2, mAb 2.5 ug/ml
[28] = target: HIV-1 envelope clone BF-002.c05 (multiclade gp160 clone panel) (HIV-1); assay: capture ELISA, plate 2, mAb 7.5 ug/ml
[29] = target: HIV-1 envelope clone F1-002.c16 (multiclade gp160 clone panel) (HIV-1); assay: capture ELISA, plate 2, mAb 7.5 ug/ml
[30] = target: HIV-1 envelope clone F1-002.c11 (multiclade gp160 clone panel) (HIV-1); assay: capture ELISA, plate 2, mAb 7.5 ug/ml
[31] = target: HIV-1 envelope clone BF-002.c08 (multiclade gp160 clone panel) (HIV-1); assay: capture ELISA, plate 2, mAb 7.5 ug/ml
[32] = target: HIV-1 envelope clone F1-002.c11 (multiclade gp160 clone panel) (HIV-1); assay: capture ELISA, plate 1, mAb 2.5 ug/ml
[33] = target: HIV-1 envelope clone BF-002.c08 (multiclade gp160 clone panel) (HIV-1); assay: capture ELISA, plate 1, mAb 2.5 ug/ml
[34] = target: HIV-1 envelope clone BF-002.c05 (multiclade gp160 clone panel) (HIV-1); assay: capture ELISA, plate 2, mAb 2.5 ug/ml
[35] = target: HIV-1 envelope clone F1-002.c16 (multiclade gp160 clone panel) (HIV-1); assay: capture ELISA, plate 2, mAb 2.5 ug/ml
[36] = target: HIV-1 envelope clone F1-002.c11 (multiclade gp160 clone panel) (HIV-1); assay: capture ELISA, plate 2, mAb 2.5 ug/ml
[37] = target: HIV-1 envelope clone BF-002.c08 (multiclade gp160 clone panel) (HIV-1); assay: capture ELISA, plate 2, mAb 2.5 ug/ml

Substance | ELISA OD [2] [OD] | ELISA OD [3] [OD] | ELISA OD [4] [OD] | ELISA OD [5] [OD] | ELISA OD [6] [OD] | ELISA OD [7] [OD] | ELISA OD [9] [OD] | ELISA OD [10] [OD] | ELISA OD [11] [OD] | ELISA OD [12] | ELISA OD [13] [OD] | ELISA OD [14] [OD] | ELISA OD [15] [OD] | ELISA OD [16] [OD] | ELISA OD [18] [OD] | ELISA OD [19] | ELISA OD [20] [OD] | ELISA OD [21] [OD] | ELISA OD [22] [OD] | ELISA OD [24] [OD] | further results
PG9 (antibody) | 0.099 | 0.33 | 0.235 | 1.48 | 0.114 | 0.151 | 0.65 | 0.852 | 0.204 | 0.211 OD and 0.205 OD | 0.068 | 0.313 | 1.79 | 0.095 | 0.988 | 0.356 OD and 0.338 OD | 0.161 | 0.986 | 0.07 | 0.597 | ELISA OD [1]: 0.07 OD and 0.054 OD; ELISA OD [8]: 0.263 OD and 0.251 OD; ELISA OD [17]: 0.364 OD and 0.308 OD; ELISA OD [23]: 0.225 OD and 0.219 OD; ELISA OD [25]: 0.834 OD; ELISA OD [26]: 0.168 OD; ELISA OD [27]: 0.177 OD and 0.186 OD
PG16 (antibody) | 0.097 | 0.301 | 0.153 | 0.513 | 0.092 | 0.244 | 0.302 | 0.8 | 0.215 | 0.226 OD and 0.245 OD | 0.065 | 0.186 | 0.398 | 0.074 | 0.485 | 0.206 OD and 0.164 OD | 0.126 | 0.374 | 0.07 | 0.272 | ELISA OD [28]: 0.764 OD; ELISA OD [29]: 0.217 OD; ELISA OD [30]: 0.154 OD; ELISA OD [31]: 0.164 OD; ELISA OD [17]: 0.185 OD and 0.131 OD; ELISA OD [32]: 0.142 OD; ELISA OD [33]: 0.146 OD; ELISA OD [34]: 0.927 OD; ELISA OD [35]: 0.349 OD; ELISA OD [25]: 0.686 OD; ELISA OD [36]: 0.121 OD; ELISA OD [26]: 0.267 OD; ELISA OD [37]: 0.108 OD; ELISA OD [27]: 0.172 OD and 0.21 OD
PGT145 (antibody) | 0.112 | 0.276 | 0.138 | 0.092 | 0.15 | 0.11 | 0.146 | 0.094 | 0.148 | 0.111 OD and 0.089 OD | 0.068 | 0.277 | 0.064 | 0.078 | 0.065 | 0.071 OD and 0.061 OD | 0.119 | 0.066 | 0.11 | 0.08 | ELISA OD [28]: 0.649 OD; ELISA OD [1]: 0.093 OD and 0.082 OD; ELISA OD [29]: 0.518 OD; ELISA OD [8]: 0.117 OD and 0.09 OD; ELISA OD [30]: 0.099 OD; ELISA OD [31]: 0.074 OD; ELISA OD [17]: 0.115 OD and 0.06 OD; ELISA OD [32]: 0.089 OD; ELISA OD [33]: 0.066 OD; ELISA OD [34]: 0.297 OD; ELISA OD [35]: 0.456 OD; ELISA OD [23]: 0.079 OD and 0.067 OD; ELISA OD [25]: 0.076 OD; ELISA OD [36]: 0.072 OD; ELISA OD [26]: 0.103 OD; ELISA OD [37]: 0.073 OD; ELISA OD [27]: 0.173 OD and 0.086 OD
PGV04 (antibody) | 1.25 | 3.25 | 0.719 | 4 | 0.459 | 3.44 | 0.22 | 1.68 | 0.109 | 2.78 OD and 2.65 OD | 0.601 | 1.34 | 4 | 0.123 | 0.241 | 1.53 OD and 1.78 OD | 0.288 | 4 | 0.155 | 0.151 | ELISA OD [28]: 4 OD; ELISA OD [29]: 0.626 OD; ELISA OD [30]: 0.506 OD; ELISA OD [31]: 3.2 OD; ELISA OD [32]: 0.145 OD; ELISA OD [33]: 2.2 OD; ELISA OD [34]: 4 OD; ELISA OD [35]: 0.303 OD; ELISA OD [25]: 0.283 OD; ELISA OD [36]: 0.156 OD; ELISA OD [26]: 0.078 OD; ELISA OD [37]: 2.79 OD; ELISA OD [27]: 1.87 OD and 2.17 OD
